# Reference: patent US20160264649A1
# How the values were obtained:
# Experiment in all cases: cell-based or functional assay
# [1] = target: HIV-1 Env of isolate MGRM-F1-010 (subtype F) (HIV-1)
# [2] = target: HIV-1 Env of isolate THR0.18 (subtype B) (HIV-1)
# [3] = target: HIV-1 Env of isolate APV_17 (subtype B) (HIV-1)
# [4] = target: HIV-1 Env of pseudovirus isolate MGRM-G-014 (subtype G) (HIV-1)
# [5] = target: HIV-1 Env of pseudovirus isolate MGRM-G-011 (subtype G) (HIV-1)
# [6] = target: HIV-1 Env of isolate MGRM-Chronic-B-010 (subtype B) (HIV-1)
# [7] = target: HIV-1 Env of isolate MGRM-Chronic-B-008 (subtype B) (HIV-1)
# [8] = target: HIV-1 Env of isolate MGRM-AE-002 (subtype AE) (HIV-1)
# [9] = target: HIV-1 Env of isolate MGRM-D-014 (subtype D) (HIV-1)
# [10] = target: HIV-1 Env of isolate 97ZA012 (subtype C) (HIV-1)
# [11] = target: HIV-1 Env of isolate MGRM-Chronic-B-018 (subtype B) (HIV-1)
# [12] = target: HIV-1 Env of isolate 6535.3 (subtype B) (HIV-1)
# [13] = target: HIV-1 Env of isolate JRCSF (subtype B) (HIV-1) (UniProt P20871)
# [14] = target: HIV-1 Env of isolate TRO.11 (subtype B) (HIV-1)
# [15] = target: HIV-1 Env of isolate 93WR029 (subtype A) (HIV-1)
# [16] = target: HIV-1 Env of isolate MGRM-D-003 (subtype D) (HIV-1)
# [17] = target: HIV-1 Env of isolate APV_6 (subtype B) (HIV-1)
# [18] = target: HIV-1 Env of isolate MGRM-D-008 (subtype D) (HIV-1)
# [19] = target: HIV-1 Env of isolate 92UG114 (subtype D) (HIV-1)
# [20] = target: HIV-1 Env of isolate 92WR020 (subtype A) (HIV-1)
# [21] = target: HIV-1 Env of isolate MGRM-D-020 (subtype D) (HIV-1)
# [22] = target: HIV-1 Env of isolate MG RM-C-026 (subtype C) (HIV-1)
# [23] = target: HIV-1 Env of isolate 94UG103 (subtype A) (HIV-1)
# [24] = target: HIV-1 Env of isolate MGRM-F1-018 (subtype F) (HIV-1)
# [25] = target: HIV-1 Env of isolate MGRM-AE-007 (subtype AE) (HIV-1)
# [26] = target: HIV-1 Env of isolate MGRM-F1-006 (subtype F) (HIV-1)
# [27] = target: HIV-1 Env of isolate MG RM-C-028 (subtype C) (HIV-1)
# [28] = target: HIV-1 Env of isolate MGRM-D-004 (subtype D) (HIV-1)
# [29] = target: HIV-1 Env of isolate 92UG031 (subtype A) (HIV-1)
# [30] = target: HIV-1 Env of isolate 94 KE 105 (subtype AC) (HIV-1)
# [31] = target: HIV-1 Env of isolate VLGCA1 (subtype A) (HIV-1)
# [32] = target: HIV-1 Env of isolate MGRM-Chronic-B-023 (subtype B) (HIV-1)
# [33] = target: HIV-1 Env of isolate 93TH305 (subtype B) (HIV-1)
# [34] = target: HIV-1 Env of isolate MGRM-F1-016 (subtype F) (HIV-1)
# [35] = target: HIV-1 Env of isolate MGRM-D-013 (subtype D) (HIV-1)
# [36] = target: HIV-1 Env of isolate 92WR024 (subtype A) (HIV-1)
# [37] = target: HIV-1 MGRM-F1-013 Env (HIV-1)
# [38] = target: HIV-1 Env of isolate MGRM-F1-004 (subtype F) (HIV-1)
# [39] = target: HIV-1 Env of isolate MGRM-AE-003 (subtype AE) (HIV-1)
# [40] = target: HIV-1 Env of isolate MGRM-F1-013 (subtype F) (HIV-1)
# [41] = target: HIV-1 Env of isolate 92UG024 (subtype D) (HIV-1)
# [42] = target: HIV-1 Env of isolate MGRM-AE-005 (subtype AE) (HIV-1)
# [43] = target: HIV-1 Env of isolate MG RM-C-024 (subtype C) (HIV-1)
# [44] = target: HIV-1 Env of isolate MG RM-C-027 (subtype C) (HIV-1)
# [45] = target: HIV-1 Env of isolate PVO.4 (subtype B) (HIV-1)
# [46] = target: HIV-1 Env of isolate MGRM-Chronic-B-004 (subtype B) (HIV-1)
# [47] = target: HIV-1 Env of pseudovirus isolate MGRM-G-028 (subtype G) (HIV-1)
substance,measurement,setting,value
1496_C09 (PG9) (TCN-109) (antibody),IC50 (pseudovirus neutralization),[1],0.012 µg/mL
same,"IC50 (µg/mL), pseudovirus neutralization",[2],26.4 µg/mL
same,IC50,[3],34.8 µg/mL
same,IC50,[4],16.5 µg/mL
same,IC50,[5],0.335 µg/mL
same,IC50,[6],0.004 µg/mL
same,IC50,[7],8.78 µg/mL
same,IC50 (pseudovirus neutralization),[8],0.04 µg/mL
same,IC50 (pseudovirus neutralization),[9],0.023 µg/mL
same,"IC50 (µg/mL), pseudovirus neutralization",[10],3.4 µg/mL
same,IC50,[11],0.216 µg/mL
same,IC50,[12],1.05 µg/mL
same,"IC50 (µg/mL), pseudovirus neutralization",[13],0.003 µg/mL
same,"IC50 (µg/mL), pseudovirus neutralization",[14],16.9 µg/mL
same,IC50 (pseudovirus neutralization),[15],0.69 µg/mL
same,IC50 (pseudovirus neutralization),[16],0.033 µg/mL
same,IC50,[17],0.181 µg/mL
same,IC50 (pseudovirus neutralization),[18],11.5 µg/mL
same,IC50 (pseudovirus neutralization),[19],40.6 µg/mL
same,IC50 (pseudovirus neutralization),[20],0.141 µg/mL
same,IC50 (pseudovirus neutralization),[21],1.67 µg/mL
same,"IC50 (µg/mL), pseudovirus neutralization",[22],0.06 µg/mL
same,IC50 (pseudovirus neutralization),[23],0.34 µg/mL
same,IC50 (pseudovirus neutralization),[24],0.019 µg/mL
same,IC50 (pseudovirus neutralization),[25],0.18 µg/mL
same,IC50 (pseudovirus neutralization),[26],7.25 µg/mL
same,"IC50 (µg/mL), pseudovirus neutralization",[27],0.067 µg/mL
same,IC50 (pseudovirus neutralization),[28],0.06 µg/mL
same,IC50 (pseudovirus neutralization),[29],3.6 µg/mL
same,IC50 (pseudovirus neutralization),[30],37.9 µg/mL
same,IC50 (pseudovirus neutralization),[31],0.069 µg/mL
same,IC50,[32],0.027 µg/mL
same,IC50,[33],8.12 µg/mL
same,IC50 (pseudovirus neutralization),[34],0.518 µg/mL
same,IC50 (pseudovirus neutralization),[35],0.021 µg/mL
same,IC50 (pseudovirus neutralization),[36],0.258 µg/mL
same,IC50 (pseudovirus neutralization),[37],0.56 µg/mL
same,IC50 (pseudovirus neutralization),[38],0.175 µg/mL
same,IC50 (pseudovirus neutralization),[39],0.044 µg/mL
same,IC50 (pseudovirus neutralization),[40],1.25 µg/mL
same,IC50 (neutralization),[41],1.86 µg/mL
same,IC50 (pseudovirus neutralization),[42],0.282 µg/mL
same,"IC50 (µg/mL), pseudovirus neutralization",[43],0.227 µg/mL
same,"IC50 (µg/mL), pseudovirus neutralization",[44],5.36 µg/mL
same,IC50,[45],24.8 µg/mL
same,IC50,[46],0.533 µg/mL
same,IC50,[47],0.891 µg/mL
